In patent publication US20250236666A1 (UNIVERSITE DE LILLE, published 2025):
No end group written: not given here. *: point of attachment. Biotin = O=C1N[C@H]2[C@H](CS[C@H]2CCCCC(=O)*)N1; C6spacer = C6 spacer

T1: Peptide 2 (Pore Forming 1) TEDPEELGHFYDYPMAK-[biot] (human)
T1 construct: Synthetic biotinylated peptide immobilized at 10 µg/mL on streptavidin plates; also called P2
T1 peptide: TEDPEELGHFYDYPMAK-biotin

T2: Peptide 3 (Pore Forming 2) [biot]-[C6spacer]-DGPANYNVDLPFMYS (human)
T2 construct: Synthetic biotinylated peptide immobilized at 10 µg/mL on streptavidin plates; also called P3
T2 peptide: {Biotin-C6spacer}-DGPANYNVDLPFMYS

T3: Human Transient Receptor Potential Vanilloid 6 (TRPV6) channel protein (human, UniProt Q9H1D0 1-765, glycosylated/mature form (band around 95-100 kDa); N-glycosylation site at position 397)
T3 construct: Endogenous or vector-expressed TRPV6 of human cell lines (LNCaP, PC3M luc C6, transfected HEK); On live cells in flow cytometry and the functional assays; in whole cell lysates under denaturing conditions (monomer) in the immunoblots; also called hTRPV6
T3 sequence: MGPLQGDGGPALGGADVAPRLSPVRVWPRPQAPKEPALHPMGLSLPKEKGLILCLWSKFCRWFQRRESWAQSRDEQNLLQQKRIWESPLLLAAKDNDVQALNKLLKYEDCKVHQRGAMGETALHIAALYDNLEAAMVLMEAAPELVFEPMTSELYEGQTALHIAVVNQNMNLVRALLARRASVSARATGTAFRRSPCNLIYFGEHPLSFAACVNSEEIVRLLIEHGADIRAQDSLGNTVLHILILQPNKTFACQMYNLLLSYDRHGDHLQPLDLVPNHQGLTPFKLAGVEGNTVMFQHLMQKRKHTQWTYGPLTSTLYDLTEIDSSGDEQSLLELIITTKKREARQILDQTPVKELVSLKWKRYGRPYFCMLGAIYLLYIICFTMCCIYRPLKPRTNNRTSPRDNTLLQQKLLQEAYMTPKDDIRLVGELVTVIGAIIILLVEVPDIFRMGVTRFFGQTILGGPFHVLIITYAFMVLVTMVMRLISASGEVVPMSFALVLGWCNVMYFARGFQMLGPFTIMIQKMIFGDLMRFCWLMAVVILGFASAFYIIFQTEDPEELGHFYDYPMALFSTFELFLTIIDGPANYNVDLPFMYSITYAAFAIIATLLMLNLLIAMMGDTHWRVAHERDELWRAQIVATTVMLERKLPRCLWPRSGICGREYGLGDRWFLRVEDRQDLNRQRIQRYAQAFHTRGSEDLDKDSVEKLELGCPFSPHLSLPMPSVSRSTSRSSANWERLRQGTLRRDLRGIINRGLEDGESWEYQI


What was measured:
[1] = target: T1, Peptide 2 (Pore Forming 1) …; experiment: dose-response ELISA, biotinylated peptide on streptavidin plate, IgG 0.00282 to 500 nM, anti-Fab-HRP
Method: (§1) TRPV6 biotinylated peptides were immobilized at 10 μg/mL on a streptavidin coated plate. IgGs binding was tested at different concentrations (from 0.00282 to 500 nM) and detected using an anti-Fab-HRP (Sigma A0293).
(§2) IgGs binding to Human TRPV6 peptides was tested by ELISA. TRPV6 biotinylated peptides were immobilized at 10 μg/mL on a streptavidin coated plate. IgGs binding was tested at different concentrations (from 0.00282 to 500 nM) and detected using an anti-Fab-HRP (Sigma A0293).

[2] = target: T2, Peptide 3 (Pore Forming 2) …; experiment: as above
Method: as §1, §2

[3] = target: T3, Human Transient Receptor Potential …; experiment: immunoblotting of LNCaP whole cell lysates, denaturing conditions

Row | Binder | EC50 [2] [nM] | further results
1 | Monoclonal antibody P2-R4-G08 (antibody, human IgG1, kappa, V domains shown, scFv from phage display subcloned into Human IgG1 format, expressed in HEK293T; also called P2-R4-G8) VH: EVQLVESGGSLVKPGGSLRLSCAASGFTFSNYGMNWVRQAPGKGLEWISGISGSSRSIGYADFVKGRFTISRDNAKNSLYLQMNSLRAEDTAVYYCVRSSYYYGMDVWGRGTLVTVSS VL: QSVLTQPASVSGSPGQSITISCAGTSSDVGGYGQVSWYQQHPGKAPKLMIYSDSSRPSGVSNRFSGSKSGNTASLTISGLQAEDEADYYCSSYTSYSTRVFGGGTKLEIKR | – | EC50 [1]: 0.49 nM
2 | Monoclonal antibody P3-R4-F03 (antibody, human IgG1, kappa, V domains shown, scFv from phage display subcloned into Human IgG1 format, expressed in HEK293T; also called P3-R4-F3) VH: EVQLVESGGSLVKPGGSLRLSCAASGFTFSNNYMNWVRQAPGKGLEWISSIGGSSRDIYYADFVKGRFTISRDNAKNSLYLQMNSLRAEDTAVYYCVRSNSGMDVWGRGTLVTVSS VL: QSVLTQPASVSGSPGQSITISCAGTSSDVGGSYSVSWYQQHPGKAPKLMIYYDSYRPSGVSNRFSGSKSGNTASLTISGLQAEDEADYYCSSNTQSSTRVFGGGTKLEIKR | 0.86 | –
3 | Monoclonal antibody P3-R5-E06 (antibody, human IgG1, kappa, V domains shown, scFv from phage display subcloned into Human IgG1 format, expressed in HEK293T; also called P3-R5-E6) VH: EVQLVESGGSLVKPGGSLRLSCAASGFTFSNAYMNWVRQAPGKGLEWISSISGSSSYIGYADFVKGRFTISRDNAKNSLYLQMNSLRAEDTAVYYCVRSSYYNYDYGDAMDVWGRGTLVTVSS VL: QSVLTQPASVSGSPGQSITISCAGTSSDVGGNYYVSWYQQHPGKAPKLMIYQDSNRPSGVSNRFSGSKSGNTASLTISGLQAEDEADYYCSSYTGYSTRVFGGGTKLEIKR | 0.98 | –
4 | Monoclonal antibody P3-R5-H03 (antibody, human IgG1, kappa, V domains shown, scFv from phage display subcloned into Human IgG1 format, expressed in HEK293T; also called P3-R5-H3) VH: EVQLVESGGSLVKPGGSLRLSCAASGFTFSNAGMNWVRQAPGKGLEWISYISGSSRYINYADFVKGRFTISRDNAKNSLYLQMNSLRAEDTAVYYCVRSSSSYGMDVWGRGTLVTVSS VL: QSVLTQPASVSGSPGQSITISCAGTSSDVGGGYYVSWYQQHPGKAPKLMIYGDSNRPSGVSNRFSGSKSGNTASLTISGLQAEDEADYYCSSNTYYSTRVFGGGTKLEIKR | 0.36 | –
5 | Monoclonal antibody P3-R4-E11 (antibody, human IgG1, kappa, V domains shown, scFv from phage display subcloned into Human IgG1 format, expressed in HEK293T) VH: EVQLVESGGSLVKPGGSLRLSCAASGFTFSNSGMNWVRQAPGKGLEWISGISGSSRYIGYADFVKGRFTISRDNAKNSLYLQMNSLRAEDTAVYYCVRSNYGGMDVWGRGTLVTVSS VL: QSVLTQPASVSGSPGQSITISCAGTSSDVGGYGYVSWYQQHPGKAPKLMIYYDSYRPSGVSNRFSGSKSGNTASLTISGLQAEDEADYYCSSYTSQSTRVFGGGTKLEIKR | 0.9 | –
6 | Mouse monoclonal anti-TRPV6 antibody 82 (mAb82) (antibody, mouse IgG2a, kappa, V domains shown, also called mab82a; No. 82a) VH: EVKLLESGGGLVQPGGSLKLSCAASGFDFRRYWMSWVRQAPGKGLEWIGEINPDSSTINYTPSLKDKFIISRDNAKNTLYLQMSKVRSEDTALYYCARSASSHYFDYWGQGTTLTVSS VL: DIVMSQSPSSLAVSVGEKVTMSCKSSQSLLYSSNQKNYLAWYQQKPGQSPKLLIYWASTRESGVPDRFTGSGSGTDFTLTISSVKAEDLAVYYCQQYYRYPTFGGGTKLEIKR | – | binding result [3]: binds
